T1: GST-FAPP1 full length (four-phosphate-adaptor-protein-1) (human, UniProt Q9HB20 1-300)
T1 sequence (looked up): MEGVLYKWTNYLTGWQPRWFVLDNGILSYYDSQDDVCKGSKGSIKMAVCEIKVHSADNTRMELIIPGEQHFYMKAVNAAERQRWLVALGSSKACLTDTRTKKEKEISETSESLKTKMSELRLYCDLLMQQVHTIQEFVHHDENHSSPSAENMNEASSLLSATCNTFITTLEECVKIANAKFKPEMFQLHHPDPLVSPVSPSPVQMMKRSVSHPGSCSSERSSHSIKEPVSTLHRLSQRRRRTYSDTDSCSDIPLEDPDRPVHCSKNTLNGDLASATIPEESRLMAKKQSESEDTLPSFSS

B1: GST-FAPP1 residues 1–100 (domain or fragment, human, UniProt Q9HB20 1-100, looked up)
chain: MEGVLYKWTNYLTGWQPRWFVLDNGILSYYDSQDDVCKGSKGSIKMAVCEIKVHSADNTRMELIIPGEQHFYMKAVNAAERQRWLVALGSSKACLTDTRT
B2: His-Sac1 residues 1–188 (domain or fragment, human, UniProt Q9NTJ5 1-188, looked up)
chain: MATAAYEQLKLHITPEKFYVEACDDGADDVLTIDRVSTEVTLAVKKDVPPSAVTRPIFGILGTIHLVAGNYLIVITKKIKVGEFFSHVVWKATDFDVLSYKKTMLHLTDIQLQDNKTFLAMLNHVLNVDGFYFSTTYDLTHTLQRLSNTSPEFQEMSLLERADQRFVWNGHLLRELSAQPEVHRFALP

Assays:
His-Sac1 residues 1–188 = biological target: B2; assay: pull-down
[1] = biological target: T1, GST-FAPP1 full length …; assay: pull-down

| binding result (His-Sac1 residues 1–188) | binding result [1] | Binder |
| --- | --- | --- |
| binds |  | B1 |
|  | binds | B2 |
